Measurements from patent publication US20240270840A1 (NECTIN THERAPEUTICS, published 2024).
Changes are numbered by the printed parent chain. Names and notes keep the numbering of the source.

B1: VH0K1 N28T (antibody, V domains shown)
VH: QVQLQQPGAELVKPGTSVKLSCKASGYTFTSYWINWVKLRPGQGLEWIGDIYPGSYIPNYNEKFKNKATLTVDTSSSTAYMQLTSLASEDSALYYCAGGYFDVWGAGTTVTVSS
VL: DIVMTQSPDSLSVSLGERATINCKSSQSLLSSGNQKNYLAWYQQKPGQPPKLLIYGASTRESGVPDRFTGSGSGTDFTLTISSLQAEDVAVYYCQNDHSYPYTFGQGTKLEIK
B2: VH0K3 N28T (antibody, V domains shown)
VH: B1 VH
VL: B1 VL with S12A, T69S
B3: VH9K2 (antibody, V domains shown)
VH: QVQLVQSGAEVKKPGSSVKVSCKASGYTFTSYWINWVKLAPGQGLEWIGDIYPGSYIPNYNEKFKNRATLTVDTSASTAYMELSSLRSEDTAVYYCAGGYFDVWGQGTTVTVSS
VL: B1 VL with S12A
B4: VH9K0 (antibody, V domains shown)
VH: B3 VH
VL: B1 VL with D9S, L15A, R18K, A19V, I21M, N22S, L84V, V89L, Q106G
B5: VH9K1 (antibody, V domains shown)
VH: B3 VH
VL: B1 VL
B6: VH10K1 (antibody, V domains shown)
VH: B3 VH with K38R, L39Q, R87A, V93L
VL: B1 VL
B7: VH10K0 (antibody, V domains shown)
VH: B3 VH with K38R, L39Q, R87A, V93L
VL: B1 VL with D9S, L15A, R18K, A19V, I21M, N22S, L84V, V89L, Q106G
B8: VH9K3 (antibody, V domains shown)
VH: B3 VH
VL: B1 VL with S12A, T69S
B9: VH11K0 (antibody, V domains shown)
VH: B3 VH with K38R, L39Q
VL: B1 VL with D9S, L15A, R18K, A19V, I21M, N22S, L84V, V89L, Q106G
B10: VH0K2 N28T (antibody, V domains shown)
VH: B1 VH
VL: B1 VL with S12A

Each binder was assayed against T1, Human CD112R (PVRIG) (human, UniProt Q6DKI7 41-171, limits assumed) (assay: SPR (Biacore); purified full antibody; * limit of the Biacore instrument sensitivity).
T1 sequence (looked up): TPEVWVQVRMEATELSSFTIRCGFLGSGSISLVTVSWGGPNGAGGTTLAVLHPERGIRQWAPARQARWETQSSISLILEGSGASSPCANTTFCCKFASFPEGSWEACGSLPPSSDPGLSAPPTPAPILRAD

Question: Which Kd does the source give for B1 here?
Answer: The Kd was 25.9 pM.

Question: And the “Relative Kd (against VH0K0 N28T)” value?
Answer: The value was 0.21.

Question: And the koff?
Answer: The koff was 8.3e-06 s⁻¹.

Question: And the kon?
Answer: The kon was 320000 M⁻¹ s⁻¹.

Question: B2 was tested. Which Kd did it give?
Answer: The Kd was 32.1 pM.

Question: And the “Relative Kd (against VH0K0 N28T)” value?
Answer: The value was 0.25.

Question: What about the koff of the same binder?
Answer: The koff was 1.06e-05 s⁻¹.

Question: And the kon?
Answer: Its kon is 330000 M⁻¹ s⁻¹.

Question: B3 was tested. Which Kd did it give?
Answer: The Kd was 43.2 pM.

Question: And the “Relative Kd (against VH0K0 N28T)” value?
Answer: The value was 0.34.

Question: What about the koff of the same binder?
Answer: The koff was 1.3e-05 s⁻¹.

Question: And the kon?
Answer: The kon was 301000 M⁻¹ s⁻¹.

Question: What does the source list for B4?
Answer: Kd: 10.3 pM; Relative Kd (against VH0K0 N28T): 0.08; koff: 3.09e-06 s⁻¹; kon: 300000 M⁻¹ s⁻¹

What follows are binders tested against T1, Human CD112R (PVRIG) (assay: SPR (Biacore); purified full antibody).

Question: Which results are given for B5?
Answer: Kd: 111 pM; Relative Kd (against VH0K0 N28T): 0.87; koff: 3.87e-05 s⁻¹; kon: 350000 M⁻¹ s⁻¹

Question: Which results are given for B6?
Answer: Kd: 119 pM; Relative Kd (against VH0K0 N28T): 0.94; koff: 4.18e-05 s⁻¹; kon: 351000 M⁻¹ s⁻¹

Question: For B7, which Kd is on record?
Answer: The Kd was 135 pM.

Question: What about the “Relative Kd (against VH0K0 N28T)” value of the same binder?
Answer: Its value is 1.07.

Question: And the koff?
Answer: Its koff is 4.66e-05 s⁻¹.

Question: What about the kon of the same binder?
Answer: Its kon is 345000 M⁻¹ s⁻¹.

Question: Which results are given for B8?
Answer: Kd: ~154 pM; Relative Kd (against VH0K0 N28T): 1.22; koff: 1.06e-05 s⁻¹; kon: 330000 M⁻¹ s⁻¹

Question: Which results are given for B9?
Answer: Kd: 101 pM; Relative Kd (against VH0K0 N28T): 0.8; koff: 3.19e-05 s⁻¹; kon: 316000 M⁻¹ s⁻¹

Question: Which results are given for B10?
Answer: Kd: 109 pM; Relative Kd (against VH0K0 N28T): 0.87; koff: 4.34e-05 s⁻¹; kon: 398000 M⁻¹ s⁻¹
